These results are taken from patent US20240400711A1 (SOUND BIOPHARMACEUTICALS, published 2024).

Where two headings read alike, the source gives them in different places.

In assay [1] the target is T1, recombinant extracellular domain of CD38 (human, UniProt P28907 43-300).
T1 construct: also called CD38 extracellular domain; AtaGenix ATMP00140HU
Briefly: Biacore SPR. On the technique in general: SPR reads the build-up and loss of mass on a sensor chip optically.

In a further assay the target is T2, rat CD38 antigen protein (rat, UniProt Q64244 45-303, limits assumed).
T2 construct: also called rat antigen
T2 sequence (looked up): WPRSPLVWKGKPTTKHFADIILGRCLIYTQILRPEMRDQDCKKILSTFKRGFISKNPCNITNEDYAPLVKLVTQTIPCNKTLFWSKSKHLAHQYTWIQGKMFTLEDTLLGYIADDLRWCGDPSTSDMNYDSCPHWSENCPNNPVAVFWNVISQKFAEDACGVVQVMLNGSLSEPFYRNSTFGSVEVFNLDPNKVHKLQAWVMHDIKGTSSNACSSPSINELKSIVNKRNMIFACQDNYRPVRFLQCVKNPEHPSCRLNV
Description: ELISA on coated rat CD38 antigen (1 µg/mL) [panel Rat CD38]. (In general: ELISA stands for enzyme-linked immunosorbent assay.)

The target in assay [2] is T1, recombinant extracellular domain of CD38. Briefly: Biacore SPR. The source holds these as a separate data set.
Assay [3] deals with T3, mouse CD38 antigen protein (mouse, UniProt P56528 45-304, limits assumed).
T3 construct: also called mouse antigen
T3 sequence (looked up): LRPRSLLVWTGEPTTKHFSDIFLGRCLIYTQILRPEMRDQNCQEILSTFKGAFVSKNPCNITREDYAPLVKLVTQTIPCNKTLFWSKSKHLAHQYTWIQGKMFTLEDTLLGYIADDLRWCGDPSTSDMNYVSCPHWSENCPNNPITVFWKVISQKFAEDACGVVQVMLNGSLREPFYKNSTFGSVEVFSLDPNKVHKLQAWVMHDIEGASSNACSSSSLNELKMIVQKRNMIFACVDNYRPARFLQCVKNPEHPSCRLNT
Description: ELISA on coated mouse CD38 antigen (1 µg/mL) [panel Mouse CD38].
Description: (§1) The cross-reactivity of the antibodies between CD38 antigen proteins of different species was measured using Elisa. Coating was performed with CD38 antigens of different species (human, cynomolgus, mouse, and rat) (1 μg/mL, 50 mL/well), and incubation was performed overnight at 2-8° C.

The target of another assay is FcγRIIIa (V176) (UniProt P08637 17-208, limits assumed). Description: kinetics, FcγRIIIa as ligand, antibody as analyte.
FcγRIIIa (V176), sequence (P08637 17-208 F176V limits assumed): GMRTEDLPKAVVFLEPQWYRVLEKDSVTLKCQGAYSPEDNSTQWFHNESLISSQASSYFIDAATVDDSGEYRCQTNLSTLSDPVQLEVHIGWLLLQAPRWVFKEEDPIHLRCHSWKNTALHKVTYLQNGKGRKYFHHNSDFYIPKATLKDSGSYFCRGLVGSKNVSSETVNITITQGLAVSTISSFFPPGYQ
Another assay concerns the target FcγRIIIa(F176) (UniProt P08637 17-208, limits assumed). Briefly: kinetics, FcγRIIIa as ligand, antibody as analyte.
Assay [4] addresses T4, CD38 on CD38-positive cells (human, UniProt P28907 1-300). Description: cell-based or functional assay.
Assay [5] has as its target T5, rhesus macaque erythrocytes (rhesus macaque).
T5 chain: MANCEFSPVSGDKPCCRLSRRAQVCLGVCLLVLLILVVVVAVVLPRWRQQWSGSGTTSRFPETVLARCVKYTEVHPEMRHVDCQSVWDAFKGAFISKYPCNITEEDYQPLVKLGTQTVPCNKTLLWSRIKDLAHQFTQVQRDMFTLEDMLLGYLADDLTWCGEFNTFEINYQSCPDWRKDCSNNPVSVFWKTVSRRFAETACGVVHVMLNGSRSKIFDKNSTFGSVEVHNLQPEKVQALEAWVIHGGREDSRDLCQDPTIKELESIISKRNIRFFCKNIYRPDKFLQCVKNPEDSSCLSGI
Description: flow cytometry on rhesus macaque erythrocytes. On the technique in general: In flow cytometry, cells or beads pass a laser one at a time.

Assay [6] addresses T4, CD38 on CD38-positive cells. Briefly: flow cytometry on NCI-H211 cells (small cell lung cancer), MFI against antibody concentration [table, row NCI-H211].
Assay [7] shares this target. Briefly: flow cytometry on SU-DHL-6 cells (B cell lymphoma), MFI against antibody concentration [table, row SU-DHL-6].
The target is the same in assay [8]. Briefly: flow cytometry on CD38-positive H211 cells.

FcγRIIIa(F176), sequence (P08637 17-208 limits assumed): as the sequence (P08637 17-208 F176V limits assumed) above, with V160F counted along it
Description for rat CD38 antigen protein: as §1

B1: H2 antibody (antibody, V domains shown)
VH: EVQLQESGAELVRSGASVKMSCKASGYTFTDYNVHWIKQTPGQGLEWIGYFYPRNGATHYNQKFTGKATLTADTSSSTAYIQISSLTSEDSAVYFCARGETPGTFPYWGQGTLVTVSA
VL: DIVLTQSPASLTVSLGQRATISCRASESVDNFGITFMHWYQQKPGQPPKLLIYRASNLESGIPARFSGSGSRTDFTLTIDPVETDDVATYYCQQSSKDPRTFGGGTKLEIK
notes: Murine monoclonal antibody from a BALB/c hybridoma; also called H2 mAb; Hybridoma-2
Take B1: in assay [1], the Kd was determined as 2.02 nM, the koff was 0.0005 s⁻¹ and the kon amounted to 248000 M⁻¹ s⁻¹. The binding result with rat CD38 antigen protein is on record as “no binding (tested: 300 µg/ml)”. In [2], the Kd is 14.6 nM, the koff turned out to be 0.000969 s⁻¹ and the kon came to 66100 M⁻¹ s⁻¹. Also, the binding result in assay [3] is reported as “no binding (tested: 300 µg/ml)”.

B2: FTL004-1 (antibody, human IgG1, kappa)
heavy: not shown
light: DIVLTQSPASLAVSPGQRATITCRASESVDNFGITFMHWYQQKPGQPPKLLIYRASNLESGVPARFSGSGSRTDFTLTINPVEANDTANYYCQQSSKDPRTFGQGTKLEIKRTVAAPSVFIFPPSDEQLKSGTASVVCLLNNFYPREAKVQWKVDNALQSGNSQESVTEQDSKDSTYSLSSTLTLSKADYEKHKVYACEVTHQGLSSPVTKSFNRGEC
notes: copies: 2 + 2
In the assay with FcγRIIIa (V176), B2 showed a Kd of 29.5 nM, a koff of 0.0229 s⁻¹ and a kon of 778000 M⁻¹ s⁻¹. This molecule returned a Kd with FcγRIIIa(F176) of 19.5 nM. For the same molecule, in [4], the “Rate of apoptosis (%), Daudi cells” value was 40.9%; the “Rate of apoptosis (%), Raji cells” value was 7.14%; the “Rate of apoptosis (%), Romas cells” value worked out at 64.2%; the “Rate of apoptosis (%), SU-DHL-6 cells” value was 21.2%. This molecule gave an EC50 in [5] of 2 to 5 µg/mL. Moreover, it took 0.555 µg/mL to reach a half-maximal effect in [6] (EC50).

B3: Daratumumab (antibody, V domains shown)
VH: EVQLLESGGGLVQPGGSLRLSCAVSGFTFNSFAMSWVRQAPGKGLEWVSAISGSGGGTYYADSVKGRFTISRDNSKNTLYLQMNSLRAEDTAVYFCAKDKILWFGEPVFDYWGQGTLVTVSS
VL: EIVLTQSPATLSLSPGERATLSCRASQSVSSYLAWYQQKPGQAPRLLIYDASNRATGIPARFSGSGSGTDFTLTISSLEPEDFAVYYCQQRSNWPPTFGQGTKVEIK
With B3, in [1], the Kd was 1.96 nM, the koff is 0.000355 s⁻¹ and the kon is 181000 M⁻¹ s⁻¹. For the same molecule, in assay [2], the Kd stood at 12.2 nM, the koff was 0.00363 s⁻¹ and the kon was 297000 M⁻¹ s⁻¹. Also, a half-maximal effect in assay [7] (EC50) was put at 0.548 µg/mL. Besides, in assay [4], the “Rate of apoptosis (%), Daudi cells” value was determined as 10.6%; the “Rate of apoptosis (%), Raji cells” value amounted to 5.73%; the “Rate of apoptosis (%), Romas cells” value is 9.78%; the “Rate of apoptosis (%), SU-DHL-6 cells” value worked out at 10.4%. The molecule further showed an EC50 in assay [8] of 1.94 µg/mL.

One may read the Kd as the concentration at which binding is half-saturated. Usually koff stands for the rate constant with which the complex falls apart. As a reminder, the kon is the second-order rate constant of association. The EC50 is the midpoint of the concentration-response curve. Higher therefore signals a less potent agent.
